# Data: publication PMC6636998
# Assays:
# [1] = target: pyruvate kinase M2 (PKM2), wild type, purified recombinant human (human) (UniProt P14618); experiment: native MS; nano-ESI, 10 µM PKM2 in 200 mM ammonium acetate pH 6.8, no FBP added (PKM2^apo*, <25% co-purified FBP); also with 300 µM Phe alone (fewer tetramers, more dimers)
# [2] = target: pyruvate kinase M2 (PKM2), wild type, purified recombinant human (human) (UniProt P14618); experiment: native MS; time course over 20 min, 10 µM PKM2 with 5 µM FBP and 400 µM Phe; ratio of the tetramer 32+ peak to the dimer 22+ peak, two-state sigmoidal model; dimers and monomers to tetramer
# pyruvate kinase M2 (PKM2), wild type, purified recombinant human, P14618-1 1-531 (enzyme; other documents disagree on this pair), sequence (P14618 whole entry): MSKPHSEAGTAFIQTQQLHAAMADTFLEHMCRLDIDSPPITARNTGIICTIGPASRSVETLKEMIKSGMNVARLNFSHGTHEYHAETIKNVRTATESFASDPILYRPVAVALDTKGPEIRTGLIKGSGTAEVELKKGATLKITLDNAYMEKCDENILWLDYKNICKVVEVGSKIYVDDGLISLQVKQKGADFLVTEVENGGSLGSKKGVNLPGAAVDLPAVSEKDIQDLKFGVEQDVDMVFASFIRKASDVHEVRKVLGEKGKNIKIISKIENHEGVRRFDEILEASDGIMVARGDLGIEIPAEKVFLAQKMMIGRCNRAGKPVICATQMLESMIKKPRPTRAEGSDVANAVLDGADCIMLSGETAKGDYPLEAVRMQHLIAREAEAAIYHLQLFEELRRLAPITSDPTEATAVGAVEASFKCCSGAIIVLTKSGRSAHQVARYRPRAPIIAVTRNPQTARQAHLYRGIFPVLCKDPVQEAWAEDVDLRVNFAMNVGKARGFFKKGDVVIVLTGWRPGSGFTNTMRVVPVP
substance,measurement,setting,value
"pyruvate kinase M2 (PKM2), wild type, purified recombinant human, P14618-1 1-531 (enzyme; other documents disagree on this pair)",stoichiometry N,[1],2
same,ktet (kinetics of tetramerisation with half-stoichiometric FBP and Phe),[2],812 s
